Reference: patent publication US20250295772A1 (ABATA THERAPEUTICS, published 2025)

Biological target: T1, preproinsulin 73-90 peptide complexed with HLA-DRB1*04:01 (human, UniProt P01903 26-254; P01911 30-266)
T1 MHC II alpha: not shown
T1 MHC II beta: not shown
T1 peptide: GAGSLQPLALEGSLQKRG
Assay: cell-based or functional assay

Binder | EC50 (nM) of CD69 upregulation, conventional CD4+ T cells + BLS-DRB1*04:01 cells, peptide titrated
TCR-I (TCR) TCR alpha: IDAKTTQPTSMDCAEGRAANLPCNHSTISGNEYVYWYRQIHSQGPQYIIHGLKNNETNEMASLIITEDRKSSTLILPHATLRDTAVYYCIVRFQSGGYQKVTFGTGTKLQVIPNIQNPDPAVYQLRDSKSSDKSVCLFTDFDSQTNVSQSKDSDVYITDKTVLDMRSMDFKSNSAVAWSNKSDFACANAFNNSIIPEDTFFPSPESSCDVKLVEKSFETDTNLNFQNLSVIGFRILLLKVAGFNLLMTLRLWSS TCR beta: DAGVIQSPRHEVTEMGQEVTLRCKPISGHNSLFWYRQTMMRGLELLIYFNNNVPIDDSGMPEDRFSAKMPNASFSTLKIQPSEPRDSAVYFCASSIQAGGRYNEQFFGPGTRLTVLEDLKNVFPPEVAVFEPSEAEISHTQKATLVCLATGFYPDHVELSWWVNGKEVHSGVSTDPQPLKEQPALNDSRYCLSSRLRVSATFWQNPRNHFRCQVQFYGLSENDEWTQDRAKPVTQIVSAEAWGRADCGFTSESYQQGVLSATILYEILLGKATLYAVLVSALVLMAMVKRKDSRG | 14.9 nM
TCR-I DS (TCR) TCR alpha: IDAKTTQPTSMDCAEGRAANLPCNHSTISGNEYVYWYRQIHSQGPQYIIHGLKNNETNEMASLIITEDRKSSTLILPHATLRDTAVYYCIVRFQSGGYQKVTFGTGTKLQVIPNIQNPDPAVYQLRDSKSSDKSVCLFTDFDSQTNVSQSKDSDVYITDKCVLDMRSMDFKSNSAVAWSNKSDFACANAFNNSIIPEDTFFPSPESSCDVKLVEKSFETDTNLNFQNLSVIGFRILLLKVAGFNLLMTLRLWSS TCR beta: DAGVIQSPRHEVTEMGQEVTLRCKPISGHNSLFWYRQTMMRGLELLIYFNNNVPIDDSGMPEDRFSAKMPNASFSTLKIQPSEPRDSAVYFCASSIQAGGRYNEQFFGPGTRLTVLEDLKNVFPPEVAVFEPSEAEISHTQKATLVCLATGFYPDHVELSWWVNGKEVHSGVCTDPQPLKEQPALNDSRYCLSSRLRVSATFWQNPRNHFRCQVQFYGLSENDEWTQDRAKPVTQIVSAEAWGRADCGFTSESYQQGVLSATILYEILLGKATLYAVLVSALVLMAMVKRKDSRG | 8.03 nM
TCR-K (TCR) TCR alpha: RGNGKNQVEQSPQSLIILEGKNCTLQCNYTVSPFSNLRWYKQDTGRGPVSLTIMTFSENTKSNGRYTATLDADTKQSSLHITASQLSDSASYICVVSASSNTGKLIFGQGTTLQVKPDIQNPDPAVYQLRDSKSSDKSVCLFTDFDSQTNVSQSKDSDVYITDKTVLDMRSMDFKSNSAVAWSNKSDFACANAFNNSIIPEDTFFPSPESSCDVKLVEKSFETDTNLNFQNLSVIGFRILLLKVAGFNLLMTLRLWSS TCR beta: DAGVIQSPRHEVTEMGQEVTLRCKPISGHNSLFWYRQTMMRGLELLIYFNNNVPIDDSGMPEDRFSAKMPNASFSTLKIQPSEPRDSAVYFCASSGQLVAYNEQFFGPGTRLTVLEDLKNVFPPEVAVFEPSEAEISHTQKATLVCLATGFYPDHVELSWWVNGKEVHSGVSTDPQPLKEQPALNDSRYCLSSRLRVSATFWQNPRNHFRCQVQFYGLSENDEWTQDRAKPVTQIVSAEAWGRADCGFTSESYQQGVLSATILYEILLGKATLYAVLVSALVLMAMVKRKDSRG | 47.7 nM
TCR-K DS (TCR) TCR alpha: RGNGKNQVEQSPQSLIILEGKNCTLQCNYTVSPFSNLRWYKQDTGRGPVSLTIMTFSENTKSNGRYTATLDADTKQSSLHITASQLSDSASYICVVSASSNTGKLIFGQGTTLQVKPDIQNPDPAVYQLRDSKSSDKSVCLFTDFDSQTNVSQSKDSDVYITDKCVLDMRSMDFKSNSAVAWSNKSDFACANAFNNSIIPEDTFFPSPESSCDVKLVEKSFETDTNLNFQNLSVIGFRILLLKVAGFNLLMTLRLWSS TCR beta: DAGVIQSPRHEVTEMGQEVTLRCKPISGHNSLFWYRQTMMRGLELLIYFNNNVPIDDSGMPEDRFSAKMPNASFSTLKIQPSEPRDSAVYFCASSGQLVAYNEQFFGPGTRLTVLEDLKNVFPPEVAVFEPSEAEISHTQKATLVCLATGFYPDHVELSWWVNGKEVHSGVCTDPQPLKEQPALNDSRYCLSSRLRVSATFWQNPRNHFRCQVQFYGLSENDEWTQDRAKPVTQIVSAEAWGRADCGFTSESYQQGVLSATILYEILLGKATLYAVLVSALVLMAMVKRKDSRG | 19.1 nM
